Data reported in patent US20110300138A1 (published 2011).

Legend:
[1] = target: TSH receptor (full length human TSHR) coated on tubes (human) (UniProt P16473); test: 125I-TSH binding inhibition read against NIBSC 90/672; 10 ng/mL, in serum
[2] = target: TSH receptor (full length human TSHR) coated on tubes (human) (UniProt P16473); test: 125I-TSH binding inhibition read against NIBSC 90/672; 100 ng/mL, in serum
[3] = target: human thyroid stimulating hormone receptor (TSHR), full length (human) (UniProt P16473); test: 125I-K1-70 Fab (competitor) binding to TSHR coated tubes; negative control MAb 0.1 µg/mL in assay buffer
[4] = target: TSH receptor (TSHR) coated on tubes (human) (UniProt P16473); test: inhibition of 125I-K1-70 IgG binding to TSHR coated tubes; negative control 0.01 µg/mL in HBD serum pool
[5] = target: TSH receptor (TSHR) coated on tubes (human) (UniProt P16473); test: inhibition of 125I-K1-70 IgG binding to TSHR coated tubes; negative control 0.1 µg/mL in assay buffer
[6] = target: human TSH receptor (full length) coated on ELISA plate wells (human) (UniProt P16473); test: TSH-biotin binding inhibition ELISA, TSHR coated wells; 0.1 µg/mL in assay buffer; negative control MAb
[7] = target: thyroid stimulating hormone receptor (TSHR), full length human TSHR (human) (UniProt P16473); test: TSH-biotin competition ELISA, TSHR coated wells; negative control, 0.01 µg/mL in HBD serum
[8] = target: human TSH receptor (full length) coated on ELISA plate wells (human) (UniProt P16473); test: TSH-biotin binding inhibition ELISA, TSHR coated wells; 100 µg/mL in HBD serum pool; negative control MAb
[9] = target: TSH receptor (TSHR), full length human, coated on tubes (human) (UniProt P16473); test: inhibition of 125I-TSH binding to TSHR coated tubes; 10 µg/mL, diluted in assay buffer
[10] = target: human TSH receptor (full length) coated on ELISA plate wells (human) (UniProt P16473); test: TSH-biotin binding inhibition ELISA, TSHR coated wells; 0.1 µg/mL in assay buffer + 100 µg/mL 5B3 IgG; negative control MAb
[11] = target: thyroid stimulating hormone receptor (TSHR), full length human TSHR (human) (UniProt P16473); test: TSH-biotin competition ELISA, TSHR coated wells; negative control, 1 µg/mL in HBD serum
[12] = target: human thyroid stimulating hormone receptor (TSHR), full length (human) (UniProt P16473); test: 125I-K1-70 Fab (competitor) binding to TSHR coated tubes; negative control MAb 10 µg/mL in HBD serum
[13] = target: TSHR (full length) coated on tubes (human) (UniProt P16473); test: inhibition of 125I-K1-18 Fab (competitor) binding to TSHR coated tubes; negative control 100 µg/mL in HBD serum
[14] = target: human thyroid stimulating hormone receptor (TSHR), full length (human) (UniProt P16473); test: 125I-K1-70 Fab (competitor) binding to TSHR coated tubes; negative control MAb 0.001 µg/mL in HBD serum
[15] = target: TSHR (thyroid stimulating hormone receptor), full length human (human) (UniProt P16473); test: competitor ^125I-K1-70 IgG, TSHR coated tubes; 0.1 µg/mL in HBD
[16] = target: human TSH receptor (full length) coated on ELISA plate wells (human) (UniProt P16473); test: TSH-biotin binding inhibition ELISA, TSHR coated wells; 0.1 µg/mL in assay buffer
[17] = target: human thyroid stimulating hormone receptor (TSHR), full length (human) (UniProt P16473); test: 125I-K1-18 Fab competition, TSHR coated tubes; 100 µg/mL in HBD
[18] = target: TSH receptor (TSHR) coated on tubes (human) (UniProt P16473); test: inhibition of 125I-K1-70 IgG binding to TSHR coated tubes; sample 0.01 µg/mL in assay buffer
[19] = target: human TSH receptor (full length) coated on ELISA plate wells (human) (UniProt P16473); test: TSH-biotin binding inhibition ELISA, TSHR coated wells; 100 µg/mL in assay buffer + 100 µg/mL 5B3 IgG
[20] = target: TSH receptor (TSHR) coated on tubes (human) (UniProt P16473); test: inhibition of 125I-K1-70 IgG binding to TSHR coated tubes; sample 0.1 µg/mL in assay buffer
[21] = target: human TSH receptor (full length) coated on ELISA plate wells (human) (UniProt P16473); test: TSH-biotin binding inhibition ELISA, TSHR coated wells; 10 µg/mL in assay buffer + 100 µg/mL 5B3 IgG
[22] = target: thyroid stimulating hormone receptor (full length human TSHR) (human) (UniProt P16473); test: ELISA: inhibition of M22 Fab-peroxidase (competitor) binding to TSHR coated wells; 0.1 µg/mL, diluted in assay buffer
[23] = target: human TSH receptor (full length) coated on ELISA plate wells (human) (UniProt P16473); test: TSH-biotin binding inhibition ELISA, TSHR coated wells; 100 µg/mL in HBD serum pool
[24] = target: human TSH receptor (full length) coated on ELISA plate wells (human) (UniProt P16473); test: TSH-biotin binding inhibition ELISA, TSHR coated wells; 1 µg/mL in assay buffer + 100 µg/mL 5B3 IgG
[25] = target: TSH receptor (TSHR) coated on tubes (human) (UniProt P16473); test: inhibition of 125I-K1-70 IgG binding to TSHR coated tubes; sample 100 µg/mL in assay buffer
[26] = target: human TSH receptor (full length) coated on ELISA plate wells (human) (UniProt P16473); test: TSH-biotin binding inhibition ELISA, TSHR coated wells; 0.1 µg/mL in HBD serum pool
[27] = target: thyroid stimulating hormone receptor (full length human TSHR) (human) (UniProt P16473); test: ELISA: inhibition of M22 Fab-peroxidase (competitor) binding to TSHR coated wells; 100 µg/mL, diluted in HBD serum pool

## M22 IgG (antibody)
[1]
  units/L: 1.5 units/L
  units/mg: 150 units/mg
[2]
  units/L: 9.9 units/L
  units/mg: 99 units/mg

## 5B3 IgG (antibody)
[3]
  Inhibition of binding (%): 2.2%
[4]
  Inhibition of binding (%): 3.2%
[5]
  Inhibition of binding (%): 1%
[6]
  % inhibition of TSH-biotin binding: -2%
[7]
  Inhibition of binding (%): -5.1%
[8]
  % inhibition of TSH-biotin binding: 10.9%
[9]
  Inhibition of binding (%): -5.7%
[10]
  % inhibition of TSH-biotin binding: -6.4%
[11]
  Inhibition of binding (%): -3.5%
[12]
  Inhibition of binding (%): -5.7%
[13]
  Inhibition of binding (%): -1.1%
[14]
  Inhibition of binding (%): -12.1%

## 9D33 IgG (antibody)
[15]
  Inhibition of binding (%): 14.8%

B1: 5C9 IgG (antibody, from another filing, V domains shown)
VH: EVQLVESGGGLIQPGGSLRLSCAASGFTVSSNYMSWVRQAPGKGLEWVSVTYSGGSTSYADSVKGRFTISRDNSKNTLYLQMNSLRAEDTAVYYCARGGRYCSSISCYARSGCDYWGQGTLVTVSS
VL: AIQMTQSPSSLSASVGDRVTITCRASQSISNYLNWYQQKPGKAPKLLIYAASSLQSGVPSRFSGSGSGTDFTLTISSLQPEDFATYYCQQSYSSPSTTFGQGTKLEIK
[16]
  % inhibition of TSH-biotin binding: 34.9%
[17]
  Inhibition of binding (%): 61.3%
[18]
  Inhibition of binding (%): 4.5%
[19]
  % inhibition of TSH-biotin binding: 92.3%
[20]
  Inhibition of binding (%): 24.6%
[21]
  % inhibition of TSH-biotin binding: 63.9%
[22]
  Inhibition of binding (%): 7.1%
[23]
  % inhibition of TSH-biotin binding: 48.6%
[24]
  % inhibition of TSH-biotin binding: 46.7%
[25]
  Inhibition of binding (%): 93.3%
[26]
  % inhibition of TSH-biotin binding: 21.6%
[27]
  Inhibition of binding (%): 19.6%
